Common to all, as to test: high performance liquid chromatography; mass of the native TTR compared with the subunit mass; data not shown
Assay [1] concerns the target xenoN/pigC/huTTR (human TTR with the N-terminal and C-terminal sequences changed to those of Xenopus laevis and S. scrofa, respectively) (Xenopus laevis | human | Sus scrofa) (UniProt B7ZS96).
The target of assay [2] is pigC/crocTTR (Crocodylus porosus TTR with the C-terminal sequence changed to that of S. scrofa TTR) (Crocodylus porosus | Sus scrofa) (UniProt O55245).
The target in assay [3] is pigC/huTTR (human TTR with the C-terminal sequence changed to that of Sus scrofa TTR) (human | Sus scrofa).

Chain of pigC/huTTR (human TTR with the C-terminal sequence changed to that of Sus scrofa TTR) (P50390 whole entry): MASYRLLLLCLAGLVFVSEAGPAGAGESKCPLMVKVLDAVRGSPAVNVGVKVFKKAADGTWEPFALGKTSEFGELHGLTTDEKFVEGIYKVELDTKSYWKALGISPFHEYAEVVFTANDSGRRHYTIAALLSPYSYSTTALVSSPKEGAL
Chain of xenoN/pigC/huTTR (human TTR with the N-terminal and C-terminal sequences changed to those of Xenopus laevis and S. scrofa, respectively) (P50390 whole entry, looked up): as the sequence (P50390 whole entry) above
Chain of xenoN/pigC/huTTR (human TTR with the N-terminal and C-terminal sequences changed to those of Xenopus laevis and S. scrofa, respectively) (B7ZS96 whole entry, looked up): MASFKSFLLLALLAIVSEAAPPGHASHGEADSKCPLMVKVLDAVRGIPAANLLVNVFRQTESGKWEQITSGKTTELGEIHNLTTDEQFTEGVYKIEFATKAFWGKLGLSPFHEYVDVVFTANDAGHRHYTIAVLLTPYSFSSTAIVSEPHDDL

On to “xenoN/pigC/huTTR (human TTR with the N-terminal and C-terminal sequences changed to those of Xenopus laevis and S. scrofa, respectively) (from UniProt B7ZS96 1-9; P50390 141-150)”, for which the stoichiometry N in assay [1] stood at 4.

As for “pigC/crocTTR (Crocodylus porosus TTR with the C-terminal sequence changed to that of S. scrofa TTR) (from UniProt O55245 21-114; P50390 135-150)”, in assay [2], the stoichiometry N stood at 4. In assay [3], “pigC/huTTR (human TTR with the C-terminal sequence changed to that of Sus scrofa TTR) (from UniProt P50390 141-150)” displayed a stoichiometry N of 4.

The stoichiometry N is the number of molecules, sites or subunits per partner or assembly.

Source of the values: article PMC5715260.
